Data: US20210230570

Assays:
[1] = molecular target: plasma purified human AT-III (antithrombin III), in complex with full-length unfractionated heparin (AT-III/UFH)
[2] = molecular target: plasma purified human antithrombin III (AT-III) in complex with full-length unfractionated heparin (UFH)

Chain of Factor X (FX), P00742 (P00742 whole entry, looked up): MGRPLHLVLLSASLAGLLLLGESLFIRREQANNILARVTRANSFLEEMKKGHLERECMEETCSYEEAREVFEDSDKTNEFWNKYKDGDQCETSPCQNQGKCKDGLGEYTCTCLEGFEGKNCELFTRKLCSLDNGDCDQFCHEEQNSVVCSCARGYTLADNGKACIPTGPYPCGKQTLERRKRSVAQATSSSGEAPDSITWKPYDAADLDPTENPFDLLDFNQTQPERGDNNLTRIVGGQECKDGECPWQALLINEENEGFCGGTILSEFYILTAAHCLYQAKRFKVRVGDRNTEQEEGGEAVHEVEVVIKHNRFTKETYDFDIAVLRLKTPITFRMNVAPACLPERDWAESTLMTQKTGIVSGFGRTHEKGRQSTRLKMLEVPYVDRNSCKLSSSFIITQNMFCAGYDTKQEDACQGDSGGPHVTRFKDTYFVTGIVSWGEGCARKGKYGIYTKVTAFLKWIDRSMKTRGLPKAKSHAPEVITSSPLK
Chain of Factor X, P00742 (P00742 whole entry, looked up): as above

Protein	kcat of FX activation by FIXa (Xase complex with FVIIIa, PC/PS vesicles, Ca2+) (Factor X, P00742) [s⁻¹]	K0.5-mut/K0.5-wt (against Catalyst Biosciences WT FIXa) [1]	kcat/KM (Factor X (FX), P00742) [M⁻¹ s⁻¹]	K0.5-mut/K0.5-wt [2] [fold]
FIXa-Y155F/K247N/N249S/R318Y/R338E/E410N (protein) chain 1: YNSGKLEEFVQGNLERECMEEKCSFEEAREVFENTERTTEFWKQYVDGDQCESNPCLNGGSCKDDINSYECWCPFGFEGKNCELDVTCNIKNGRCEQFCKNSADNKVVCSCTEGYRLAENQKSCEPAVPFPCGRVSVSQTSKLTR chain 2: VVGGEDAKPGQFPWQVVLNGKVDAFCGGSIVNEKWIVTAAHCVETGVKITVVAGEHNIEETEHTEQNRSVIRIIPHHNYNAAINKYNHDIALLELDEPLVLNSYVTPICIADKEYTNIFLKFGSGYVSGWGRVFHKGYSALVLQYLRVPLVDRATCLESTKFTIYNNMFCAGFHEGGRDSCQGDSGGPHVTEVEGTSFLTGIISWGEECAMKGKYGIYTKVSRYVNWIKNKTKLT	4.3	200	3.3e+08	–
FIXa D104N/K106S/I251S/R318Y/R338E/R403E/E410N (protein) chain 1: YNSGKLEEFVQGNLERECMEEKCSFEEAREVFENTERTTEFWKQYVDGDQCESNPCLNGGSCKDDINSYECWCPFGFEGKNCELDVTCNIKNGRCEQFCKNSANNSVVCSCTEGYRLAENQKSCEPAVPFPCGRVSVSQTSKLTR chain 2: VVGGEDAKPGQFPWQVVLNGKVDAFCGGSIVNEKWIVTAAHCVETGVKITVVAGEHNIEETEHTEQKRNVSRIIPHHNYNAAINKYNHDIALLELDEPLVLNSYVTPICIADKEYTNIFLKFGSGYVSGWGRVFHKGYSALVLQYLRVPLVDRATCLESTKFTIYNNMFCAGFHEGGRDSCQGDSGGPHVTEVEGTSFLTGIISWGEECAMKGKYGIYTKVSEYVNWIKNKTKLT	–	–	–	> 517
FIXa Y155F/K228N/R318Y/R338E/R403E/E410N (protein) chain 1: YNSGKLEEFVQGNLERECMEEKCSFEEAREVFENTERTTEFWKQYVDGDQCESNPCLNGGSCKDDINSYECWCPFGFEGKNCELDVTCNIKNGRCEQFCKNSADNKVVCSCTEGYRLAENQKSCEPAVPFPCGRVSVSQTSKLTR chain 2: VVGGEDAKPGQFPWQVVLNGKVDAFCGGSIVNEKWIVTAAHCVETGVNITVVAGEHNIEETEHTEQKRNVIRIIPHHNYNAAINKYNHDIALLELDEPLVLNSYVTPICIADKEYTNIFLKFGSGYVSGWGRVFHKGYSALVLQYLRVPLVDRATCLESTKFTIYNNMFCAGFHEGGRDSCQGDSGGPHVTEVEGTSFLTGIISWGEECAMKGKYGIYTKVSEYVNWIKNKTKLT	–	–	–	> 517
FIXa Y259F/K265T/Y345T (protein) chain 1: YNSGKLEEFVQGNLERECMEEKCSFEEAREVFENTERTTEFWKQYVDGDQCESNPCLNGGSCKDDINSYECWCPFGFEGKNCELDVTCNIKNGRCEQFCKNSADNKVVCSCTEGYRLAENQKSCEPAVPFPCGRVSVSQTSKLTR chain 2: VVGGEDAKPGQFPWQVVLNGKVDAFCGGSIVNEKWIVTAAHCVETGVKITVVAGEHNIEETEHTEQKRNVIRIIPHHNFNAAINTYNHDIALLELDEPLVLNSYVTPICIADKEYTNIFLKFGSGYVSGWGRVFHKGRSALVLQYLRVPLVDRATCLRSTKFTITNNMFCAGFHEGGRDSCQGDSGGPHVTEVEGTSFLTGIISWGEECAMKGKYGIYTKVSRYVNWIKEKTKLT	–	–	–	0.3
FIXa I251S/R318Y/R338E/R403E/E410N (protein) chain 1: YNSGKLEEFVQGNLERECMEEKCSFEEAREVFENTERTTEFWKQYVDGDQCESNPCLNGGSCKDDINSYECWCPFGFEGKNCELDVTCNIKNGRCEQFCKNSADNKVVCSCTEGYRLAENQKSCEPAVPFPCGRVSVSQTSKLTR chain 2: VVGGEDAKPGQFPWQVVLNGKVDAFCGGSIVNEKWIVTAAHCVETGVKITVVAGEHNIEETEHTEQKRNVSRIIPHHNYNAAINKYNHDIALLELDEPLVLNSYVTPICIADKEYTNIFLKFGSGYVSGWGRVFHKGYSALVLQYLRVPLVDRATCLESTKFTIYNNMFCAGFHEGGRDSCQGDSGGPHVTEVEGTSFLTGIISWGEECAMKGKYGIYTKVSEYVNWIKNKTKLT	–	–	–	> 517
FIXa-R318Y/R338E/R403E/E410N/T412A (protein) chain 1: YNSGKLEEFVQGNLERECMEEKCSFEEAREVFENTERTTEFWKQYVDGDQCESNPCLNGGSCKDDINSYECWCPFGFEGKNCELDVTCNIKNGRCEQFCKNSADNKVVCSCTEGYRLAENQKSCEPAVPFPCGRVSVSQTSKLTR chain 2: VVGGEDAKPGQFPWQVVLNGKVDAFCGGSIVNEKWIVTAAHCVETGVKITVVAGEHNIEETEHTEQKRNVIRIIPHHNYNAAINKYNHDIALLELDEPLVLNSYVTPICIADKEYTNIFLKFGSGYVSGWGRVFHKGYSALVLQYLRVPLVDRATCLESTKFTIYNNMFCAGFHEGGRDSCQGDSGGPHVTEVEGTSFLTGIISWGEECAMKGKYGIYTKVSEYVNWIKNKAKLT	8.4	> 517	2.6e+08	–
FIXa-R318Y/R338E/R403E/E410S (protein) chain 1: YNSGKLEEFVQGNLERECMEEKCSFEEAREVFENTERTTEFWKQYVDGDQCESNPCLNGGSCKDDINSYECWCPFGFEGKNCELDVTCNIKNGRCEQFCKNSADNKVVCSCTEGYRLAENQKSCEPAVPFPCGRVSVSQTSKLTR chain 2: VVGGEDAKPGQFPWQVVLNGKVDAFCGGSIVNEKWIVTAAHCVETGVKITVVAGEHNIEETEHTEQKRNVIRIIPHHNYNAAINKYNHDIALLELDEPLVLNSYVTPICIADKEYTNIFLKFGSGYVSGWGRVFHKGYSALVLQYLRVPLVDRATCLESTKFTIYNNMFCAGFHEGGRDSCQGDSGGPHVTEVEGTSFLTGIISWGEECAMKGKYGIYTKVSEYVNWIKSKTKLT	5.8	> 517	2.1e+08	–
FIXa K228N/R318Y/R338E/R403E/E410N (protein) chain 1: YNSGKLEEFVQGNLERECMEEKCSFEEAREVFENTERTTEFWKQYVDGDQCESNPCLNGGSCKDDINSYECWCPFGFEGKNCELDVTCNIKNGRCEQFCKNSADNKVVCSCTEGYRLAENQKSCEPAVPFPCGRVSVSQTSKLTR chain 2: VVGGEDAKPGQFPWQVVLNGKVDAFCGGSIVNEKWIVTAAHCVETGVNITVVAGEHNIEETEHTEQKRNVIRIIPHHNYNAAINKYNHDIALLELDEPLVLNSYVTPICIADKEYTNIFLKFGSGYVSGWGRVFHKGYSALVLQYLRVPLVDRATCLESTKFTIYNNMFCAGFHEGGRDSCQGDSGGPHVTEVEGTSFLTGIISWGEECAMKGKYGIYTKVSEYVNWIKNKTKLT	–	–	–	> 517
FIXa D85N/K228N/R318Y/R338E/R403E/E410N (protein) chain 1: YNSGKLEEFVQGNLERECMEEKCSFEEAREVFENTERTTEFWKQYVDGDQCESNPCLNGGSCKDDINSYECWCPFGFEGKNCELNVTCNIKNGRCEQFCKNSADNKVVCSCTEGYRLAENQKSCEPAVPFPCGRVSVSQTSKLTR chain 2: VVGGEDAKPGQFPWQVVLNGKVDAFCGGSIVNEKWIVTAAHCVETGVNITVVAGEHNIEETEHTEQKRNVIRIIPHHNYNAAINKYNHDIALLELDEPLVLNSYVTPICIADKEYTNIFLKFGSGYVSGWGRVFHKGYSALVLQYLRVPLVDRATCLESTKFTIYNNMFCAGFHEGGRDSCQGDSGGPHVTEVEGTSFLTGIISWGEECAMKGKYGIYTKVSEYVNWIKNKTKLT	–	–	–	> 517
FIXa-R318Y/R338E/R403E/E410N/T412V (protein) chain 1: YNSGKLEEFVQGNLERECMEEKCSFEEAREVFENTERTTEFWKQYVDGDQCESNPCLNGGSCKDDINSYECWCPFGFEGKNCELDVTCNIKNGRCEQFCKNSADNKVVCSCTEGYRLAENQKSCEPAVPFPCGRVSVSQTSKLTR chain 2: VVGGEDAKPGQFPWQVVLNGKVDAFCGGSIVNEKWIVTAAHCVETGVKITVVAGEHNIEETEHTEQKRNVIRIIPHHNYNAAINKYNHDIALLELDEPLVLNSYVTPICIADKEYTNIFLKFGSGYVSGWGRVFHKGYSALVLQYLRVPLVDRATCLESTKFTIYNNMFCAGFHEGGRDSCQGDSGGPHVTEVEGTSFLTGIISWGEECAMKGKYGIYTKVSEYVNWIKNKVKLT	7.9	> 517	1.9e+08	–
